Changes are numbered by the printed parent chain.

For assay [1], the target named is T1, mouse CD47 (mouse, UniProt Q61735 19-140, limits assumed).
T1 construct: also called mouse CD47 protein
T1 sequence (looked up): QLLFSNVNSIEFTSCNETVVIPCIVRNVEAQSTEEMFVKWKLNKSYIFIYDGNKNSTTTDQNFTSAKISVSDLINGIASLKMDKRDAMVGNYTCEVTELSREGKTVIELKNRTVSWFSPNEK
Description: SPR, 25 C, 1:1 Langmuir fit.

Assay [2] addresses T2, human CD47 (human, UniProt Q08722 19-139).
T2 construct: extracellular domain; also called CD47 ECD
Briefly: SPR, 25 C, 1:1 Langmuir fit. For orientation: SPR reads the build-up and loss of mass on a sensor chip optically.

Assay [3] deals with T1, mouse CD47. Description: SPR (Biacore T100 and ProteOn XPR36).
Assay [4] addresses T2, human CD47. Description: SPR (Biacore T100 and ProteOn XPR36).
The target of the next assay is T3, rat CD47 (rat, UniProt P97829 19-140, limits assumed).
T3 sequence (looked up): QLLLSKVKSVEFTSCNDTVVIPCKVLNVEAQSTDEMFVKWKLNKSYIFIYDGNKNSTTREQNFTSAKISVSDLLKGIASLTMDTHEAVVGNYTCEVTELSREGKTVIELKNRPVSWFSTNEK
Briefly: SPR (Biacore T100 and ProteOn XPR36).

Assay [5] deals with T2, human CD47. Description: SPR as in Example 1.
In assay [6] the target is T2, human CD47. Briefly: SPR; protein made in E. coli.
The target in assay [7] is T2, human CD47. Description: SPR, 25 C, 1:1 Langmuir fit. This is another data set of the same source.

T2 sequence (Q08722 19-139 limits assumed): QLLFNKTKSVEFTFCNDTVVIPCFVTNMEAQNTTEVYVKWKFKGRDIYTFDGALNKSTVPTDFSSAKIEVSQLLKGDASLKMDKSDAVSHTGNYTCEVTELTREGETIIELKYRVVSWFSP

B1: SIRP-α D1 variant polypeptide of SEQ ID NO: 86 (receptor)
chain: EEELQIIQPDKSVLVAAGETATLRCTITSLFPVGPIQWFRGAGPGRVLIYNQRQGPFPRVTTVSDTTKRNNMDFSIRIGNITPADAGTYYCIKFRKGSPDDVEFKSGAGTELSVRAKPS
notes: engineered SIRP-α D1 domain
For B1, the Kd (usually the concentration at which binding is half-saturated) with mouse CD47 [1] is 43 nM; in the assay with human CD47 [2], 0.0144 nM.

B2: SIRP-α D1 variant polypeptide of SEQ ID NO: 210 (receptor)
chain: B1 chain with V47E, Q54D, N80A, I92V, S98I
As to B2, the Kd with mouse CD47 [1] came out at 6.01 nM; in the assay with human CD47 [2], 6.79 nM; in the assay with mouse CD47 [3] it was 0.612 nM; with human CD47 [4] it was 1.65 nM; with rat CD47, 4.59 nM.

B3: SIRP-α D1 variant polypeptide of SEQ ID NO: 200 (receptor)
chain: B1 chain with V47E, Q54E, N80A, I92V, S98I
For the molecule B3, the Kd is 1.17 nM in the assay with mouse CD47 [3], 0.304 nM with human CD47 [4] and 14.2 nM with rat CD47.

B4: SIRP-α D1 variant polypeptide of SEQ ID NO: 207 (receptor)
chain: B1 chain with F31Y, V47E, Q54D, N80A, I92V
Consider B4, for which the dissociation constant (Kd) was determined as 0.88 nM with mouse CD47 [3], 1.04 nM with human CD47 [4] and 5.9 nM with rat CD47.

B5: SIRP-α D1 variant polypeptide of SEQ ID NO: 198 (receptor)
chain: B1 chain with F31Y, V47E, Q54E, N80A, I92V
On to B5, for which the Kd was 1.41 nM in the assay with mouse CD47 [3], 0.155 nM with human CD47 [4] and 9.88 nM with rat CD47.

B6: SIRP-α D1 variant polypeptide of SEQ ID NO: 208 (receptor)
chain: B1 chain with F31Y, V47E, Q54E, N80A, I92V, S98I
On to B6, for which the Kd with mouse CD47 [3] was found to be 0.832 nM; with human CD47 [4], 0.219 nM; with rat CD47, 5.17 nM.

B7: SIRP-α D1 variant polypeptide of SEQ ID NO: 204 (receptor)
chain: B1 chain with F31R, V47E, Q54D, N80A, I92V
With B7, the Kd in the assay with mouse CD47 [1] worked out at 5.21 nM; with human CD47 [2] it was 3.49 nM; in the assay with mouse CD47 [3], 0.448 nM; with human CD47 [4] it was 0.653 nM; in the assay with rat CD47, 3.42 nM.

B8: SIRP-α D1 variant polypeptide of SEQ ID NO: 206 (receptor)
chain: B1 chain with F31R, V47E, Q54D, N80A, I92V, S98I
B8: the Kd amounted to 3.33 nM with mouse CD47 [1]; 5.26 nM with human CD47 [2]; 0.288 nM in the assay with mouse CD47 [3]; 0.967 nM with human CD47 [4]; 1.49 nM with rat CD47.

B9: SIRP-α D1 variant polypeptide of SEQ ID NO: 199 (receptor)
chain: B1 chain with V47E, Q54D, N80A, I92V
Regarding B9, the figures for the dissociation constant Kd in the assay with mouse CD47 [3], with human CD47 [4] and with rat CD47 were 1.25 nM, 1.26 nM and 10.7 nM, respectively.

B10: SIRP-α D1 variant polypeptide of SEQ ID NO: 209 (receptor)
chain: B1 chain with F31Y, V47E, Q54D, N80A, I92V, S98I
Consider B10, for which the Kd turned out to be 4.11 nM with mouse CD47 [1]; 4.46 nM with human CD47 [2]; 0.371 nM with mouse CD47 [3]; 1.01 nM with human CD47 [4]; 2.26 nM in the assay with rat CD47.

B11: SIRP-α D1 variant polypeptide of SEQ ID NO: 205 (receptor)
chain: B1 chain with F31R, V47E, Q54E, N80A, I92V, S98I
B11: the dissociation constant Kd with mouse CD47 [3] stood at 0.569 nM; with human CD47 [4], 0.248 nM; with rat CD47, 4.28 nM.

B12: SIRP-α D1 variant fused to Fc variant, SEQ ID NO: 214 (Fc fusion)
chain: EEELQVIQPDKSVLVAAGETATLRCTATSLFPVGPIQWFRGAGPGRELIYNQREGPFPRVTTVSDLTKRNNMDFSIRIGAITPADAGTYYCVKFRKGSPDDVEFKSGAGTELSVRAKPSERKSSVECPPCPAPPVAGPSVFLFPPKPKDTLMISRTPEVTCVVVDVSHEDPEVQFNWYVDGVEVHNAKTKPREEQFASTFRVVSVLTVVHQDWLNGKEYKCKVSNKGLPSSIEKTISKTKGQPREPQVYTLPPSREEMTKNQVSLTCLVKGFYPSDIAVEWESNGQPENNYKTTPPMLDSDGSFFLYSKLTVDKSRWQQGNVFSCSVMHEALHNHYTQKSLSLSPG
As to B12, the Kd was 63 nM with mouse CD47 [3], 2 nM with human CD47 [4] and 80 nM in the assay with rat CD47.

B13: SIRP-α D1 variant fused to Fc variant, SEQ ID NO: 97 (Fc fusion)
chain: EEELQVIQPDKSVLVAAGETATLRCTATSLFPVGPIQWFRGAGPGRELIYNQRQGPFPRVTTVSDLTKRNNMDFSIRIGNITPADAGTYYCVKFRKGSPDDVEFKSGAGTELSVRAKPSDKTHTCPPCPAPEAAGAPSVFLFPPKPKDTLMISRTPEVTCVVVDVSHEDPEVKFNWYVDGVEVHNAKTKPREEQYASTYRVVSVLTVLHQDWLNGKEYKCKVSNKALPAPIEKTISKAKGQPREPQVYTLPPSREEMTKNQVSLTCLVKGFYPSDIAVEWESNGQPENNYKTTPPVLDSDGSFFLYSKLTVDKSRWQQGNVFSCSVMHEALHNHYTQKSLSLSPGK
For B13, the Kd with human CD47 [2] was 1.55 nM; with human CD47 [5], 1.09 nM.

B14: engineered SIRP-α D1 variant construct that does not bind CD47, SEQ ID NO: 215 (Fc fusion)
chain: B13 chain with F31I, V33R, Q52R, R53K, Q54E, P56H
notes: negative control; also called negative control
On to B14, for which the binding result with mouse CD47 [3], with human CD47 [4] and with rat CD47 was “no binding” in each case.

B15: SIRP-α D1 variant fused to Fc variant, SEQ ID NO: 100 (Fc fusion)
chain: B13 chain with Q54E, N80A
Regarding B15, the values for the Kd with mouse CD47 [1], with human CD47 [2] and with human CD47 [5] were 63.2 nM, 2.69 nM and 1.79 nM, respectively.

B16: SIRP-α D1 variant fused to Fc variant, SEQ ID NO: 104 (Fc fusion)
chain: B13 chain with V6I, A27I, Q54E, L66T, N80A
In the case of B16, the dissociation constant (Kd) turned out to be 8.04 nM with mouse CD47 [1] and 0.0919 nM with human CD47 [2].

B17: SIRP-α D1 variant polypeptide of SEQ ID NO: 54 (receptor)
chain: EEELQVIQPDKSVSVAAGESAILHCTVTSLFPVGPIQWFRGAGPARELIYNQRQGPFPRVTTVSESTKRENMDFSISISNITPADAGTYYCVKFRKGSPDTEFKSGAGTELSVRAKPS
notes: engineered SIRP-α D1 domain
On to B17, for which the Kd with human CD47 [6] and in the assay with human CD47 [7] was 2.7 nM each time.

B18: SIRP-α D1 variant polypeptide of SEQ ID NO: 57 (receptor)
chain: B17 chain with V6I, V27I, F31I, E47V, S66T, V92I
notes: engineered SIRP-α D1 domain
For B18, the Kd with human CD47 [6] and with human CD47 [7] was 0.36 nM each time.

B19: SIRP-α D1 variant polypeptide of SEQ ID NO: 58 (receptor)
chain: B17 chain with V6I, V27I, S66T, V92I
notes: engineered SIRP-α D1 domain
In the case of B19, the Kd with human CD47 [6] and with human CD47 [7] was 0.16 nM each time.

B20: SIRP-α D1 variant polypeptide of SEQ ID NO: 61 (receptor)
chain: B17 chain with V6I, V27I, E47V, P56H, S66T, V92I
notes: engineered SIRP-α D1 domain
With B20, the Kd with human CD47 [6] and with human CD47 [7] was 0.38 nM each time.

B21: SIRP-α D1 variant polypeptide of SEQ ID NO: 60 (receptor)
chain: B17 chain with V6I, V27I, E47V, Q54E, S66T, V92I
notes: engineered SIRP-α D1 domain
With B21, the equilibrium dissociation constant (Kd) with human CD47 [6] and with human CD47 [7] was 0.38 nM each time.

B22: SIRP-α D1 variant polypeptide of SEQ ID NO: 56 (receptor)
chain: B17 chain with V6I, E47V, S66T, V92I
notes: engineered SIRP-α D1 domain
In the case of B22, the Kd in the assay with human CD47 [6] and with human CD47 [7] was 0.2 nM in each case.

B23: SIRP-α D1 variant polypeptide of SEQ ID NO: 62 (receptor)
chain: B17 chain with V6I, V27I, E47V, V92I
notes: engineered SIRP-α D1 domain
With B23, the Kd with human CD47 [6] and in the assay with human CD47 [7] was 0.13 nM each time.

B24: SIRP-α D1 variant polypeptide of SEQ ID NO: 59 (receptor)
chain: B17 chain with V6I, V27I, E47V, R53K, S66T, V92I
notes: engineered SIRP-α D1 domain
For the molecule B24, the Kd in the assay with human CD47 [6] and with human CD47 [7] was 14 nM in each case.

B25: SIRP-α D1 variant polypeptide of SEQ ID NO: 63 (receptor)
chain: B17 chain with V6I, V27I, E47V, S66T
notes: engineered SIRP-α D1 domain
On to B25, for which the Kd in the assay with human CD47 [6] and in the assay with human CD47 [7] was 0.089 nM throughout.

These data come from patent US20200239543A1 (ALX ONCOLOGY, published 2020).
